Legend:
Experiment in all cases: SPR (BIACORE), antibody captured on chip, FcγR as analyte, 25 C; KD of SG1 divided by KD of the variant
[1] = molecular target: T1, human FcγRIIaH extracellular domain, His-tagged (human, UniProt P12318 34-217)
T1 construct: also called human FcγRIIa (type H); FcgRIIaH; not shown: His-tag added to the C-terminus
T1 sequence: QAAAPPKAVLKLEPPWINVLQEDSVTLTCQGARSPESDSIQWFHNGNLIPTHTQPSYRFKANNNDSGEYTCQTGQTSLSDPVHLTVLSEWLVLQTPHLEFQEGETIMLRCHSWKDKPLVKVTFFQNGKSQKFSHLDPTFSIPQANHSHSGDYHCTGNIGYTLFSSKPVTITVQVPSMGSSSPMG
Method: (§1) After the measurement, the antibody captured on the chip was washed off by allowing reaction with 10 mM glycine-HCl, pH1.5 and 25 mM NaOH so that the chip was regenerated and used repeatedly. The sensorgrams obtained as measurement results were analyzed by the 1:1 Langmuir binding model using the BIACORE® Evaluation Software to calculate the binding rate constant ka (L/mol/s) and dissociation rate constant kd (l/s), and the dissociation constant KD (mol/L) was calculated from these values. […] Regarding such interactions, KD values were calculated using the following 1:1 binding model described in BIACORE® T100 Software Handbook BR1006-48 Edition AE.
(§2) The behavior of interacting molecules according to the 1:1 binding model on BIACORE® can be described by Equation 1: Req=C·R max/(KD+C)+RI, wherein, Req is a plot of steady-state binding levels to analyte concentration. C is concentration, RI is bulk refractive index contribution in the sample, and Rmax is analyte binding capacity of the surface. When this equation is rearranged, KD can be expressed as Equation 2: KD=C·Rmax/(Req−RI)−C. KD can be calculated by substituting the values of Rmax, RI, and C into Equation 1 or Equation 2. From the current measurement conditions, RI=0, C=2 μmol/L can be used.

[2] = molecular target: T2, human FcγRIIb extracellular domain, His-tagged (human, UniProt P31994 43-217)
T2 construct: also called FcgRIIb (human); not shown: His-tag added to the C-terminus
T2 sequence: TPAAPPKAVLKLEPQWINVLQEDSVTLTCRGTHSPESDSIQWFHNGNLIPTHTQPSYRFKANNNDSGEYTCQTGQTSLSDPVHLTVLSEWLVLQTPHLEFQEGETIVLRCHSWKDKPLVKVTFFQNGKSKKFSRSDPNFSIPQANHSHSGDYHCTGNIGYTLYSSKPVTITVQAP
Method: as §1, §2

[3] = molecular target: T3, cynomolgus monkey FcγRIIa3 extracellular domain, His-tagged (cynomolgus monkey)
T3 construct: also called cyno FcγRIIa3; FcgRIIa3; not shown: His-tag added to the C-terminus
T3 chain: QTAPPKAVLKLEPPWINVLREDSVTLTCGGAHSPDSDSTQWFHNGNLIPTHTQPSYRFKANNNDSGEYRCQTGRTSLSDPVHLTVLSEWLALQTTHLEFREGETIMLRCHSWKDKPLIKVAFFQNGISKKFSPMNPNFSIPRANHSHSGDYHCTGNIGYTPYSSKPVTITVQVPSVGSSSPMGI
Method: as §1, §2

[4] = molecular target: T4, cynomolgus monkey FcγRIIa2 extracellular domain, His-tagged (cynomolgus monkey)
T4 construct: also called cyno FcγRIIa2; FcgRIIa2; not shown: His-tag added to the C-terminus
T4 chain: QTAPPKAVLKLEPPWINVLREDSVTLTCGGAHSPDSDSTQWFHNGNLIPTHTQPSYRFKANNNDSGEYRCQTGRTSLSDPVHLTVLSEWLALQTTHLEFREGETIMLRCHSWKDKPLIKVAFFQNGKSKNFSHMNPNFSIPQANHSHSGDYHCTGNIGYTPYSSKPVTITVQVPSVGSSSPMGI
Method: as §1, §2

[5] = molecular target: T5, cynomolgus monkey FcγRIIa1 extracellular domain, His-tagged (cynomolgus monkey)
T5 construct: also called cyno FcγRIIa1; FcgRIIa1; not shown: His-tag added to the C-terminus
T5 chain: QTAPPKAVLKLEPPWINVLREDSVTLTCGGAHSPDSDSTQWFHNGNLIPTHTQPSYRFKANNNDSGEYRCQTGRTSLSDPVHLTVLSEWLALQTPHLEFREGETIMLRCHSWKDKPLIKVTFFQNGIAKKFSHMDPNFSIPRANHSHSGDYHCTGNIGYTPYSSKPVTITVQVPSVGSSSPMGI
Method: as §1, §2

[6] = molecular target: T6, cynomolgus monkey FcγRIIb extracellular domain, His-tagged (cynomolgus monkey)
T6 construct: also called cyno FcγRIIb; cynoFcγRIIb; not shown: His-tag added to the C-terminus
T6 chain: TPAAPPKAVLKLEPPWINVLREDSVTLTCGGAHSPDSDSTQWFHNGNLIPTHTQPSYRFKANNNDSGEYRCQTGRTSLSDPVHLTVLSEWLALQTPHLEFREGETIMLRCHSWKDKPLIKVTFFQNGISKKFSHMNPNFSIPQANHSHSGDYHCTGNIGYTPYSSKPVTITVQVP
Method: as §1, §2

[7] = molecular target: T7, human FcγRIIIaV extracellular domain, His-tagged (human, UniProt P08637 17-208)
T7 construct: also called human FcγRIIIa (allotype V158); FcgRIIIaV; not shown: His-tag added to the C-terminus
Method: as §1, §2

[8] = molecular target: T8, human FcγRIIaR extracellular domain, His-tagged (human, UniProt P12318 34-217)
T8 construct: also called human FcγRIIa (type R); FcgRIIaR; not shown: His-tag added to the C-terminus
T8 chain: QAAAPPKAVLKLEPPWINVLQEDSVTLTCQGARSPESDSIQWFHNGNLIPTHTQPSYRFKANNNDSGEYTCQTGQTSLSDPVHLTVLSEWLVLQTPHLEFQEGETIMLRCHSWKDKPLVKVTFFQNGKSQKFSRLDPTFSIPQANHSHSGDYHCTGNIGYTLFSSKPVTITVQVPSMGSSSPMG
Method: as §1, §2

[9] = molecular target: T9, cynomolgus monkey FcγRIIIaS extracellular domain, His-tagged (cynomolgus monkey, UniProt A3RFZ7 21-206 (rhesus entry))
T9 construct: also called cyno FcγRIIIaS; FcgRIIIaS; not shown: His-tag added to the C-terminus
Method: as §1, §2

T9 sequence (A3RFZ7 21-206): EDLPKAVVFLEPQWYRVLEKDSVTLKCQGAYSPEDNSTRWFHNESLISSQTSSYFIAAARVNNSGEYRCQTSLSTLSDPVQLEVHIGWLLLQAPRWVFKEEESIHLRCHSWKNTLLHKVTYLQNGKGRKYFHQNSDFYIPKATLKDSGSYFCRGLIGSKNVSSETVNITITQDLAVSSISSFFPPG
T7 sequence (P08637 17-208 F176V): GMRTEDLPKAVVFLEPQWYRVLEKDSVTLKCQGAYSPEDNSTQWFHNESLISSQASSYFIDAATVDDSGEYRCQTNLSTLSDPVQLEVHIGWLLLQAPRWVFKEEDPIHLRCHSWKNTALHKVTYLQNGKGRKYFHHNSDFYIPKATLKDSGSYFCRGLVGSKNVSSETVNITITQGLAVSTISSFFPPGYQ

Binder	KD fold for humanFcgRs (SG1 = 1) [1] [fold]	KD fold for humanFcgRs (SG1 = 1) [2] [fold]	KD fold for cynoFcgRs (SG1 = 1) [3] [fold]	KD fold for cynoFcgRs (SG1 = 1) [4] [fold]	KD fold for cynoFcgRs (SG1 = 1) [5] [fold]	KD fold for cynoFcgRs (SG1 = 1) [6] [fold]	KD fold for humanFcgRs (SG1 = 1) [7] [fold]	KD fold for humanFcgRs (SG1 = 1) [8] [fold]	KD fold for cynoFcgRs (SG1 = 1) [9] [fold]
M103205H795-MY325 / M103202L889-SK1 (antibody, human IgG1, kappa, expressed with M103202L889-SK1 as light chain) heavy: QVTLKESGPVLVKPTETLTLTCTVSGIDLSHDDISWVRQAPGKGLEWVGIISYAGSTYYASWAKGRLTISKDTSKNQVVLTMTNMDPVDTATYYCARGVPAYSHGGDLWGQGTLVTVSSASTKGPSVFPLAPSSKSTSGGTAALGCLVKDYFPEPVTVSWNSGALTSGVHTFPAVLQSSGLYSLSSVVTVPSSSLGTQTYICNVNHKPSNTKVDKKVEPKSCDKTHTCPPCPAPELLDGPSVFLFPPKPKDTLMISRTPEVTCVVVDVSDEDPEVKFNWYVDGVEVHNAKTKPREEQYNSTYRVVSVLTVLHQDWLNGKEYKCKVSNKALPKPIEKTISKAKGQPREPQVYTLPPSREEMTKNQVSLTCLVKGFYPSDIAVEWESNGQPENNYKTTPPVLDSDGSFFLYSKLTVDKSRWQQGNVFSCSVMHEALHNHYTQKSLSLSP light: DIVMTQSPATLSLSPGERATLSCTSSQSVYHANWLSWFQQKPGQPPKLLIYWASTLAYGVPSRFSGSGSGTDFTLTISSLQPEDAATYYCAGGYGGGRYAFGQGTKVEIKRTVAAPSVFIFPPSDEQLKSGTASVVCLLNNFYPREAKVQWKVDNALQSGNSQESVTEQDSKDSTYSLSSTLTLSKADYEKHKVYACEVTHQGLSSPVTKSFNRGEC	1.4	17.7	2.9	1.2	0.8	1.8	0.1	3.7	0.09
M103205H795-MY327 / M103202L889-SK1 (antibody, human IgG1, kappa, Fc variant made by introducing the substitutions into M103205H795-SG1; the list of substitutions runs over r149c2 and r150c2; Expressed with M103202L889-SK1 as light chain) heavy: QVTLKESGPVLVKPTETLTLTCTVSGIDLSHDDISWVRQAPGKGLEWVGIISYAGSTYYASWAKGRLTISKDTSKNQVVLTMTNMDPVDTATYYCARGVPAYSHGGDLWGQGTLVTVSSASTKGPSVFPLAPSSKSTSGGTAALGCLVKDYFPEPVTVSWNSGALTSGVHTFPAVLQSSGLYSLSSVVTVPSSSLGTQTYICNVNHKPSNTKVDKKVEPKSCDKTHTCPPCPAPELLDGPSVFLFPPKPKDTLMISRTPEVTCVVVDVSEEDPEVKFNWYVDGVEVHNAKTKPREELYNSTYRVVSVLTVLHQDWLNGKEYKCKVSNKALPKPIEKTISKAKGQPREPQVYTLPPSREEMTKNQVSLTCLVKGFYPSDIAVEWESNGQPENNYKTTPPVLDSDGSFFLYSKLTVDKSRWQQGNVFSCSVMHEALHNHYTQKSLSLSP light: DIVMTQSPATLSLSPGERATLSCTSSQSVYHANWLSWFQQKPGQPPKLLIYWASTLAYGVPSRFSGSGSGTDFTLTISSLQPEDAATYYCAGGYGGGRYAFGQGTKVEIKRTVAAPSVFIFPPSDEQLKSGTASVVCLLNNFYPREAKVQWKVDNALQSGNSQESVTEQDSKDSTYSLSSTLTLSKADYEKHKVYACEVTHQGLSSPVTKSFNRGEC	2	27	3.2	1.1	0.9	1.8	0.08	3.3	0.08

Source: US20200317768A1 (published 2020)
